These results are taken from patent US20130035249A1.

For assay [1], the target named is full-length human CEA (human) (UniProt P06731). Kind of assay: binding to CHO cells expressing full-length CEA (method of the KD not described).
Assay [2] has the same target. Kind of assay: binding to CHO cells co-expressing full-length CEA and the CEA splice variant (method of the KD not described).

In general, Kd refers to the concentration at which binding is half-saturated. Read a high Kd as weaker binding.

Take MEDI-565 (bispecific antibody): the Kd amounted to 5 nM in assay [1] and 5.6 nM in assay [2].
